# According to WO2013005649A1:
# pKd: −log10 of the molar value.
# Target: human CCR6 N-terminal extracellular domain Fc fusion protein NthCCR6-IgG4Fc (human)
# Test: SPR, Biacore T100; NthCCR6-IgG4Fc captured on anti-human IgG CM5 chip, antibody injected
# human CCR6 N-terminal extracellular domain Fc fusion protein NthCCR6-IgG4Fc (human), sequence (chain, as listed by the source limits assumed): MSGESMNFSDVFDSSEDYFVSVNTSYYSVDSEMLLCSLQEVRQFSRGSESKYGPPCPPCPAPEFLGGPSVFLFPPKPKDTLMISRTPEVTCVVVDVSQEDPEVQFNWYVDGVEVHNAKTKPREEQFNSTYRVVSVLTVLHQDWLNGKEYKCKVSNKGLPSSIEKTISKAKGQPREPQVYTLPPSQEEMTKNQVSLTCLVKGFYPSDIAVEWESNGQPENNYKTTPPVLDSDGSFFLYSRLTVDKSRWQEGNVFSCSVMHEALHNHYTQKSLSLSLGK
row,Substance,pKd
1,human CCR6 monoclonal antibody (clone 53103) (R&D Systems),7.15
2,commercially available anti-human CCR6 monoclonal antibody 11A9 (BD Pharmingen),7.70
3,commercially available anti-human CCR6 monoclonal antibody R6H1 (eBioscience),8.30
